In patent US20240101700A1 (BIOCON, published 2024):
Blank lines part the entries; values can stand above or below the molecule they belong to.

Tests used:
CD6 [1] = target: T1, CD6 (human, UniProt P30203 18-668, tyrosine phosphorylation of the cytoplasmic domain (sites not given)); experiment: co-immunoprecipitation with CD6 (pulled down by itolizumab) and immunoblot; PBMCs on plate-bound ALCAM against no ALCAM
T1 construct: whole, on cells; Endogenous CD6 of human PBMCs; also called CD6 receptor; hCD6
T1 sequence (looked up): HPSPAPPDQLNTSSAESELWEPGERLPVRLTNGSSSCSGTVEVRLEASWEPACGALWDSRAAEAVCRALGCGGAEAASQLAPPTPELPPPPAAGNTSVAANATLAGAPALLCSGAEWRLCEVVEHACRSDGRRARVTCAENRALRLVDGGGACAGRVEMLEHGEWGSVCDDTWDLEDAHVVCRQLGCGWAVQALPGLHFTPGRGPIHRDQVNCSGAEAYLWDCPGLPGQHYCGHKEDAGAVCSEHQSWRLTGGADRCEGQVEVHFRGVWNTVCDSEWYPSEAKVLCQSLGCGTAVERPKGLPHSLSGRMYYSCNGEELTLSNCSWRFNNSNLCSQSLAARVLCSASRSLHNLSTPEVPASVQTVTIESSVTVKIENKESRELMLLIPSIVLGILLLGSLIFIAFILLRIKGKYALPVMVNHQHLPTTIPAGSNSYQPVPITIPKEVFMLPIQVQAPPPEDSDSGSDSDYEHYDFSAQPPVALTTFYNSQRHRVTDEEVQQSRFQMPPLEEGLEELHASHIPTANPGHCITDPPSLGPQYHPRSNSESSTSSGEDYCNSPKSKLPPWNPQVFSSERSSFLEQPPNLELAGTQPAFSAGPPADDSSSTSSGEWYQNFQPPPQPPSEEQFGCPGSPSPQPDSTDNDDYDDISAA

CD6 [2] = target: T1, CD6; experiment: cell-based or functional assay
CD6 [3] = target: T1, CD6; experiment: immunoprecipitation of CD6 from human PBMC lysates and CD6 immunoblot
Protocol: In these experiments, PBMC were treated with 0.5 ng/ml anti-CD3 antibody (OKT 3) for 24 h in presence or absence of itolizumab or Iso Ab antibody. Cells were harvested and CD6 was immune-precipitated with itolizumab or Iso Ab. 10% total lysate served as input control samples. Both immune precipitated and input control samples were immune blotted and analyzed.

Molecule: SLP-76 (from UniProt Q13094 1-533)
fold increase of association with CD6 (CD6 [1]): 3 to 4 fold

B1: itolizumab (antibody, human IgG1, kappa, V domains shown)
VH: EVQLVESGGGLVKPGGSLKLSCAASGFKFSRYAMSWVRQAPGKRLEWVATISSGGSYIYYPDSVKGRFTISRDNVKNTLYLQMSSLRSEDTAMYYCARRDYDLDYFDSWGQGTLVTVSS
VL: DIQMTQSPSSLSASVGDRVTITCKASRDIRSYLTWYQQKPGKAPKTLIYYATSLADGVPSRFSGSGSGQDYSLTISSLESDDTATYYCLQHGESPFTLGSGTKLEIKR
notes: Humanized IgG1, produced at Biocon Ltd, used in soluble form; also called T1h; humanized IgG1 isotype anti-CD6 monoclonal antibody
binding result (CD6 [3]): binds

Results, then the molecule that gave them:

CD6 tyrosine phosphorylation (CD6 [2]): > 2.5 fold | phosphorylation of CD6 associated SHP1 and SHP2 (CD6 [2]): 3 to 4 fold
Molecule: Fc-ALCAM (from UniProt Q13740 28-527) (Fc fusion)

fold increase of association with CD6 (CD6 [1]): 3 to 4 fold
Molecule: Zap70 (from UniProt P43403 1-619) (enzyme)
